Assay results published in PMC13071878, “Yeast Display Technology Enables Rapid Discovery of Low-Nanomolar Macrocyclic Peptide Inhibitors of Human Angiotensin-Converting Enzyme 2” (Journal of Medicinal Chemistry, 2026).
Several values for one entry are separate records, joined by “and”; a condition that tells them apart may be missing. Equal entries are not always repeated. Where two headings read alike, the source gives them in different places.

Columns and labels:
hACE2 [1] = target: T1, hACE2 (Homo sapiens, UniProt Q9BYF1); set-up: method as in ref 2 (SI list; Harman et al. 2023); conditions: phage display bicyclic peptides, ref 2 (SI list; Harman et al. 2023), cited from earlier work; for Ki: where not reported, calculated by Cheng-Prusoff, Km 23 μM
hACE2 [2] = target: T1, hACE2; set-up: method as in ref 2 (SI list; Harman et al. 2023); conditions: phage display bicyclic peptides; ref 2 (SI list; Harman et al. 2023); cited from earlier work
hACE2 [3] = target: T1, hACE2; set-up: method as in ref 3 (SI list; Bedding et al. 2024); conditions: mRNA display cyclic peptides; ref 3 (SI list; Bedding et al. 2024); cited from earlier work
hACE2 [4] = target: T1, hACE2; set-up: method as in ref 3 (SI list; Bedding et al. 2024); conditions: mRNA display cyclic peptides, ref 3 (SI list; Bedding et al. 2024), cited from earlier work; for Ki: where not reported, calculated by Cheng-Prusoff, Km 23 μM
hACE2 [5] = target: T1, hACE2; set-up: method as in ref 4 (SI list; Huang et al. 2003); conditions: phage display DX peptides, ref 4 (SI list; Huang et al. 2003), cited from earlier work; for Ki: where not reported, calculated by Cheng-Prusoff, Km 23 μM
hACE2 [6] = target: T1, hACE2; set-up: method as in ref 4 (SI list; Huang et al. 2003); conditions: phage display DX peptides; ref 4 (SI list; Huang et al. 2003); cited from earlier work
[7] = Plasma stability of synthetic peptides (LC-MS); conditions: human, plasma, plasma half-life t1/2, human plasma, 37 °C, 10 μM, LC-MS, n = 2
Method: The mixtures were incubated at 37 °C in a water bath (VWR, Pennsylvania, PA, USA). At designated time points (0, 0.25, 0.5, 1, 2, 4, 8, 24, and 48 h), 100 μL aliquots were withdrawn and quenched with 100 μL of 100% v/v ACN. Following centrifugation (10 min at 15000 g, 4 °C), 100 μL of the supernatant was collected and diluted with 50 μL of solvent A (99.9% v/v H2O and 0.1% v/v FA). Samples were characterized by LC–MS using an Agilent 1260 Infinity II LC system coupled to an InfinityLab LC/MSD mass spectrometer (Agilent Technologies, Santa Clara, CA, USA). The system operated with a standard ESI source in negative ionization mode. Separation was performed on a reversed-phase Symmetry C18 column (5 μm, 150 mm × 4.6 mm, Waters, Milford, MA, USA) using a linear gradient of 10–100% solvent B over 22 min at a flow rate of 0.6 mL/min (Solvent A: 99.9% v/v H2O and 0.1% v/v FA; Solvent B: 99.9% v/v ACN and 0.1% v/v FA). Data acquisition, processing, and analysis were performed using MestReNova v.12.0.1 (Mestrelab Research, Santiago de Compostela, Spain). All samples were analyzed in duplicate (n = 2). The percentage of remaining peptide was calculated by integrating the peak areas, with the area at 0 h defined as 100%. Half-lives (t 1/2) were determined via nonlinear regression analysis using GraphPad Prism (GraphPad software Inc., San Diego, CA, USA). Data are presented as mean values ± s.d.

hACE1 = target: T2, hACE1 (Homo sapiens, UniProt P12821); test: biochemical
T2 construct: purchased R&D Systems
Method: The activity assay was performed by incubating 0.25 nM of hACE2 with 50 μM fluorogenic substrate Mca-Ala-Pro-Lys­(Dnp)–OH (MedChemExpress, Monmouth Junction, NJ, USA) and 3-fold MP dilutions (ranging from 0.03 nM to 100 μM). […] All reagents were diluted in 10 mM Tris–HCl, pH 7.4, 300 mM NaCl, 100 μM ZnCl2, 0.1% w/v BSA, and 0.1% v/v DMSO assay buffer. The measurements were performed on a Berthold TriStar LB 941 microplate reader (Berthold Technologies, Bad Wildbad, Germany) using flat-bottom 96-well half area Corning Costar plates (Corning, New York, USA). The enzymatic reactions were performed at 25 °C for 90 min, under shaking with a maximum excitation wavelength (λex) of 320 nm and maximum emission wavelength (λem) of 405 nm. The initial velocities were monitored as changes in fluorescence intensity. Half-maximum inhibitory concentration (IC50) values were determined using GraphPad Prism v8.2.1 software (GraphPad software Inc., San Diego, CA, USA). […] Reactions were initiated by adding hACE2 (final concentration 0.25 nM) to the fluorogenic substrate in assay buffer at 25 °C. Fluorescence was recorded as described earlier (λex = 320 nm, λem = 405 nm) using a Berthold TriStar LB 941 microplate reader (Berthold Technologies, Bad Wildbad, Germany). Initial velocities (V 0) were plotted against substrate concentrations [S] and analyzed via nonlinear regression using a one-site specific binding model using GraphPad Prism v8.2.1 software (GraphPad software Inc., San Diego, CA, USA). […] All reagents were diluted in 10 mM Tris-HCl, pH 7.4, 300 mM NaCl, 100 μM ZnCl2, 0.1% w/v BSA, and 0.1% v/v DMSO buffer. Measurements and data analysis were performed as mentioned above.

hACE2 [8] = target: T1, hACE2; test: Isothermal titration calorimetry of synthetic MPs with hACE2; format: binding; conditions: 25 °C
Method: Isothermal titration calorimetry (ITC) experiments were performed at 25 °C using a MicroCal iTC200 instrument ([…], Malvern Panalytical, Malvern, UK). The hACE2 protein (initial stock 11 mg/mL, 20 mM Tris pH 7.4, 200 mM NaCl) was diluted into the assay buffer (100 mM Tris pH 7.4, 200 mM NaCl) to a final concentration of 5 μM. […] Titrations consisted of an initial 0.4 μL injection (excluded from subsequent data analysis), followed by 18 injections of 2 μL each, with a stirring rate of 750 rpm to ensure rapid mixing. A 120 s interval was maintained between injections to ensure the baseline returned to equilibrium. Blank experiments involving the titration of the synthetic MPs into the assay buffer were performed to determine and subtract the heats of dilution. Data processing was conducted using the Origin software package version 7 (OriginLab Corporation, Northampton, MA, USA). The integrated heat signals were fitted to a single-site binding model to determine the association constant (K A), the dissociation constant ([…]), the enthalpy change (ΔH), and the binding stoichiometry (n). The Gibbs free energy (ΔG) and the entropy change (ΔS) were calculated using the standard thermodynamic relationship: ΔG=ΔH−TΔS=−RTln(KA)

hACE2 [9] = target: T1, hACE2; format: binding; conditions: yeast-displayed MP, serial dilutions of biotinylated hACE2

T1 sequence (Q9BYF1 19-615): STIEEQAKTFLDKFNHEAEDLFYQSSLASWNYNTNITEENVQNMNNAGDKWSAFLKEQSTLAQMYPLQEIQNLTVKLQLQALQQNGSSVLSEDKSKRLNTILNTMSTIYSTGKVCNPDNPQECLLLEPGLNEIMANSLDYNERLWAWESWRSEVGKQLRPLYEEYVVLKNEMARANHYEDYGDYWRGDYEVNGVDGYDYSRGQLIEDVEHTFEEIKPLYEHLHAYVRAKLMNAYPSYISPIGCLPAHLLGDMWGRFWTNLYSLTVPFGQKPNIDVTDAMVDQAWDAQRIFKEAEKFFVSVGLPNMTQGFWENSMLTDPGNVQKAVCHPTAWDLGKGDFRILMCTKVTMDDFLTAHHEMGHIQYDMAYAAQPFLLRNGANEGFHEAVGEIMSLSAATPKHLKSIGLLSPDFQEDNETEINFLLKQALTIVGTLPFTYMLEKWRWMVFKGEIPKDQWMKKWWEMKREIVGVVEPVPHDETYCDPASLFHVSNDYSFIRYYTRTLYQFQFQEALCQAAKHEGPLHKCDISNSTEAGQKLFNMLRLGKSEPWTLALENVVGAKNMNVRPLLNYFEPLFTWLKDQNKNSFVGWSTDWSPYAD
T2 sequence (P12821 30-1306): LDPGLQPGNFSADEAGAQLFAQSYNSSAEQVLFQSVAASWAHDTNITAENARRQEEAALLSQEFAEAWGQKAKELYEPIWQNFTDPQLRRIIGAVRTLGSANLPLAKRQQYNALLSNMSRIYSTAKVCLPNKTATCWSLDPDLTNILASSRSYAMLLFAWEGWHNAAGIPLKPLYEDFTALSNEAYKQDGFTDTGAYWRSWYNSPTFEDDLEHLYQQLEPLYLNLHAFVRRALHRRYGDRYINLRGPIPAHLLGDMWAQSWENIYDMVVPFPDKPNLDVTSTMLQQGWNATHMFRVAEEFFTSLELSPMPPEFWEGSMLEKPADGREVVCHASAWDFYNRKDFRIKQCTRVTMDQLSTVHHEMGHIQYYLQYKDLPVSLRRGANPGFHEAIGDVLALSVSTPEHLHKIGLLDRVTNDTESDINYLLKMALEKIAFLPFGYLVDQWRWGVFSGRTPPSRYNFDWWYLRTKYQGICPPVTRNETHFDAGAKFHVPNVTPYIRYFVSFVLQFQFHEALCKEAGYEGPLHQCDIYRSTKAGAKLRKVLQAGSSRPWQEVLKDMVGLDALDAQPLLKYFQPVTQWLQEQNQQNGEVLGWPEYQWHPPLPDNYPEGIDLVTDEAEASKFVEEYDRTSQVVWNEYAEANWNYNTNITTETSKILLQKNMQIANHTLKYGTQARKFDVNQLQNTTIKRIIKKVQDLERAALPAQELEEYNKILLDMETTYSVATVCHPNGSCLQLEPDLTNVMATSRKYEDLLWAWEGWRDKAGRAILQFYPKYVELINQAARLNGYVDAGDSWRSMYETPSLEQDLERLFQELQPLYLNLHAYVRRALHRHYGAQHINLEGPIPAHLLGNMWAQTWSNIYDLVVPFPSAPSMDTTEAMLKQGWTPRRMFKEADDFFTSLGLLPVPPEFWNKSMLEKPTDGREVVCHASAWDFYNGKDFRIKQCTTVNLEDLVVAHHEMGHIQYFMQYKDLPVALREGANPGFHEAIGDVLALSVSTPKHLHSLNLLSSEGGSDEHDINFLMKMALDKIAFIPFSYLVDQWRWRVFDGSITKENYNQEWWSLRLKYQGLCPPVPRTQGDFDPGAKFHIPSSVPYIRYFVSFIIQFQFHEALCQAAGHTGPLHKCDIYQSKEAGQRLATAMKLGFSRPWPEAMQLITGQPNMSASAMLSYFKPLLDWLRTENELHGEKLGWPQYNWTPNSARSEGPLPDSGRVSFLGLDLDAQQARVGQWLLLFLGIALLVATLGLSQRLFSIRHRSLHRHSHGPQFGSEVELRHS

ACHRDFPRCTWETQWCA [BCY15297]
IC50 (hACE2 [1]): 12000 nM
Ki (hACE2 [1]): 5200 nM
Kd (hACE2 [2]): 11000 nM

y*VVLRPLRDLGRVFC [peptide5]
Kd (hACE2 [3]): 9 nM

Y*WTLFVFRDGVLPVWSC [peptide9]
Kd (hACE2 [3]): 50.3 nM
IC50 (hACE2 [4]): 2050 nM
Ki (hACE2 [4]): 383 nM

GDGFTCSPIRMFPWFRCDLGDP [DX601]
IC50 (hACE2 [5]): 56.8 nM
Ki (hACE2 [5]): 30.9 nM
Kd (hACE2 [6]): 56.3 nM

Y*VKRNVYEGYKPC [peptide15]
Kd (hACE2 [3]): 7.3 nM

CC(C)C[C@@H]1NC(=O)[C@H](CC(N)=O)NC(=O)[C@H](Cc2ccc(O)cc2)NC(=O)CNC(=O)[C@H](CC(C)C)NC(=O)[C@@H]2CCCN2C(=O)[C@H](CCC(=O)O)NC(=O)[C@@H](NC(=O)[C@H](C)N)CSSC[C@@H](C(=O)N[C@@H](CO)C(=O)NCC(N)=O)NC(=O)[C@H](CC(C)C)NC(=O)[C@H](Cc2ccccc2)NC1=O [GR1.4]
half-life [7]: 6.5 h
IC50 (hACE1): > 100000 nM
Ki (hACE1): > 100000 nM
ΔH (ITC) (hACE2 [8]): -33.5 ± 0.5 kJ/mol
-TΔS (ITC) (hACE2 [8]; calculated): -8.1 kJ/mol

GDRYLCLPQRDKPWKFCNWFDP [DX599]
IC50 (hACE2 [5]): 114 nM
Ki (hACE2 [5]): 46.5 nM
Kd (hACE2 [6]): 48.6 nM

GDFSPCKALRHSPWWVCPSGDP [DX602]
IC50 (hACE2 [5]): 128 nM
Ki (hACE2 [5]): 121 nM
Kd (hACE2 [6]): 74.4 nM

y*LSVNRVFAYRIIYKC [peptide23]
Kd (hACE2 [3]): 9.1 nM

AGWEVCHWAPMMCKHGGT [DX529]
IC50 (hACE2 [5]): 400 nM
Ki (hACE2 [5]): 380 nM

y*FNRSGKLLFLYC [peptide4]
Kd (hACE2 [3]): 240 nM

y*VQRPIRNVRLIRC [peptide24]
Kd (hACE2 [3]): 430 nM

CC[C@H](C)[C@@H]1NC(=O)[C@H](Cc2ccccc2)NC(=O)[C@H](Cc2ccccc2)NC(=O)[C@@H](NC(=O)[C@H](C)N)CSSC[C@@H](C(=O)N[C@@H](CO)C(=O)NCC(N)=O)NC(=O)[C@H]([C@@H](C)CC)NC(=O)[C@H](Cc2c[nH]c3ccccc23)NC(=O)[C@H](CCCNC(=N)N)NC(=O)[C@H](CC(N)=O)NC(=O)[C@H](Cc2ccccc2)NC(=O)CNC1=O [GR1.1]
half-life [7]: 5.4 h
IC50 (hACE1): > 100000 nM
Ki (hACE1): > 100000 nM

AGSDWCGTWNNPCFHQGT [DX531]
IC50 (hACE2 [5]): 500 nM
Ki (hACE2 [5]): 540 nM

GSRIGCRDSRCNWWAP [DX524]
IC50 (hACE2 [5]): 600 nM
Ki (hACE2 [5]): 540 nM

ACGREELPCRIKLCA [BCY15298]
IC50 (hACE2 [1]): > 40000 nM

ACVRSHCSSLLPRIHCA [BCY15291]
IC50 (hACE2 [1]): 2 nM
Ki (hACE2 [1]): 0.9 nM
Kd (hACE2 [2]): 0.4 nM and 0.44 nM

CC(=O)NCC(=O)N[C@@H](CC(=O)O)C(=O)N[C@@H](Cc1ccc(O)cc1)C(=O)N[C@@H](CO)C(=O)N[C@@H](Cc1cnc[nH]1)C(=O)N[C@H]1CSSC[C@@H](C(=O)N[C@H](C(=O)N[C@@H](Cc2ccc(O)cc2)C(=O)N2CCC[C@H]2C(=O)N[C@@H](CC(=O)O)C(=O)N2CCC[C@H]2C(=O)N[C@@H](CCC(=O)O)C(=O)NCC(=O)NCC(=O)NCC(N)=O)[C@@H](C)O)NC(=O)[C@H](CCCCN)NC(=O)[C@H](Cc2c[nH]c3ccccc23)NC(=O)[C@H](Cc2c[nH]c3ccccc23)NC(=O)[C@@H]2CCCN2C(=O)[C@H](Cc2ccc(O)cc2)NC(=O)[C@H](Cc2ccc(O)cc2)NC(=O)[C@H](CCCNC(=N)N)NC(=O)[C@H](CC(C)C)NC(=O)[C@@H]2CCCN2C(=O)[C@H](CO)NC1=O [DX600]
IC50 (hACE1): > 100000 nM

ACHKFPCRDPQQYLFCA [BCY15296]
IC50 (hACE2 [1]): 47 nM
Ki (hACE2 [1]): 21 nM
Kd (hACE2 [2]): 29 nM

GSRGFCRDSSCSFPAP [DX525]
IC50 (hACE2 [5]): 1000 nM
Ki (hACE2 [5]): 1700 nM

GDLHACRPVRGDPWWACTLGDP [DX513]
IC50 (hACE2 [5]): 90 nM
Ki (hACE2 [5]): 126 nM
Kd (hACE2 [6]): 170 nM

ACLRSYNLCPRINCA [BCY15294]
IC50 (hACE2 [1]): 2400 nM
Ki (hACE2 [1]): 1100 nM
Kd (hACE2 [2]): 850 nM

Y*AVLLHKGKFVFTYGC [peptide12]
Kd (hACE2 [3]): 610 nM
IC50 (hACE2 [4]): 39500 nM
Ki (hACE2 [4]): 7390 nM

ACTRPWCHSLLPRATCA [BCY15293]
IC50 (hACE2 [1]): 4.9 nM
Ki (hACE2 [1]): 2.2 nM
Kd (hACE2 [2]): 1.6 nM

ACEPLAYNLFLCSG [GR1.7]
binding to hACE2 in yeast surface titration (in words) (hACE2 [9]): completely abolished

Y*FQRSVRLPYLRC [peptide2]
Kd (hACE2 [3]): 0.04 nM

y*VHIIYWKNGLPRITC [peptide14]
Kd (hACE2 [3]): 82.3 nM
IC50 (hACE2 [4]): 9720 nM
Ki (hACE2 [4]): 1820 nM

y*RLHRSPWAHFGFAC [peptide20]
Kd (hACE2 [3]): 228 nM
IC50 (hACE2 [4]): 1980 nM
Ki (hACE2 [4]): 370 nM

ACEPLGYALFLCSG [GR1.9]
binding to hACE2 in yeast surface titration (in words) (hACE2 [9]): significantly attenuated

ACEPAGYNLFLCSG [GR1.6]
binding to hACE2 in yeast surface titration (in words) (hACE2 [9]): completely abolished

ACEPLGFNRWICSG [GR1.3, yeast-encoded “one-ring” macrocyclic peptide, GR1 family]
binding to hACE2 in yeast surface titration (in words) (hACE2 [9]): comparable binding affinities

y*IRQFTSRVPLHC [peptide21]
Kd (hACE2 [3]): 3.6 nM

AGQKECKFGYPHCLPWGT [DX530]
IC50 (hACE2 [5]): 30000 nM

y*DAYTRRTHRNPRLCQC [peptide7]
Kd (hACE2 [3]): 32 nM

y*SYQYRGRFHRQC [peptide19]
Kd (hACE2 [3]): 78 nM

Y*VFRSLRTPFIVC [peptide1]
Kd (hACE2 [3]): 0.4 nM

ACEPLGANLFLCSG [GR1.8]
binding to hACE2 in yeast surface titration (in words) (hACE2 [9]): completely abolished

y*ARPLRHRPWYVSWC [peptide6]
Kd (hACE2 [3]): 3.3 nM

Y*VLSSPRGALRALRC [peptide3]
Kd (hACE2 [3]): 290 nM

GDRLHCKPQRQSPWMKCQHLDP [DX512]
IC50 (hACE2 [5]): 60 nM
Ki (hACE2 [5]): 139 nM
Kd (hACE2 [6]): 96 nM

ACGRQFCHTLMPRHLCA [BCY15292]
IC50 (hACE2 [1]): 2.6 nM
Ki (hACE2 [1]): 1.2 nM
Kd (hACE2 [2]): 1.2 nM

y*TYQYRDRFFRPC [peptide22]
Kd (hACE2 [3]): 14.8 nM
